Experimental data taken from US8815527 (Stanford University, dated 2014).

Columns and labels:
[1] = molecular target: AKT phosphorylated at Ser473; assay: flow cytometry, Jurkat T cells +PDGF, AKT+ gated; number stands under the right-hand population (ser473 stain about 50, thr308 stain about 50); one dotted box encloses both populations
[2] = molecular target: p38 MAPK phosphorylated at Thr180/Tyr182; assay: flow cytometry, Jurkat T cells +Anisomycin; gate around the population with phospho-p38 stain about 15 to 100
[3] = molecular target: T1, Leukocyte Function Antigen-1 (LFA-1) on the cell surface (human, UniProt P20701 26-1170; P05107 23-769); assay: cell-based or functional assay
T1 sequence (P20701 26-1170, chain 1 of 2): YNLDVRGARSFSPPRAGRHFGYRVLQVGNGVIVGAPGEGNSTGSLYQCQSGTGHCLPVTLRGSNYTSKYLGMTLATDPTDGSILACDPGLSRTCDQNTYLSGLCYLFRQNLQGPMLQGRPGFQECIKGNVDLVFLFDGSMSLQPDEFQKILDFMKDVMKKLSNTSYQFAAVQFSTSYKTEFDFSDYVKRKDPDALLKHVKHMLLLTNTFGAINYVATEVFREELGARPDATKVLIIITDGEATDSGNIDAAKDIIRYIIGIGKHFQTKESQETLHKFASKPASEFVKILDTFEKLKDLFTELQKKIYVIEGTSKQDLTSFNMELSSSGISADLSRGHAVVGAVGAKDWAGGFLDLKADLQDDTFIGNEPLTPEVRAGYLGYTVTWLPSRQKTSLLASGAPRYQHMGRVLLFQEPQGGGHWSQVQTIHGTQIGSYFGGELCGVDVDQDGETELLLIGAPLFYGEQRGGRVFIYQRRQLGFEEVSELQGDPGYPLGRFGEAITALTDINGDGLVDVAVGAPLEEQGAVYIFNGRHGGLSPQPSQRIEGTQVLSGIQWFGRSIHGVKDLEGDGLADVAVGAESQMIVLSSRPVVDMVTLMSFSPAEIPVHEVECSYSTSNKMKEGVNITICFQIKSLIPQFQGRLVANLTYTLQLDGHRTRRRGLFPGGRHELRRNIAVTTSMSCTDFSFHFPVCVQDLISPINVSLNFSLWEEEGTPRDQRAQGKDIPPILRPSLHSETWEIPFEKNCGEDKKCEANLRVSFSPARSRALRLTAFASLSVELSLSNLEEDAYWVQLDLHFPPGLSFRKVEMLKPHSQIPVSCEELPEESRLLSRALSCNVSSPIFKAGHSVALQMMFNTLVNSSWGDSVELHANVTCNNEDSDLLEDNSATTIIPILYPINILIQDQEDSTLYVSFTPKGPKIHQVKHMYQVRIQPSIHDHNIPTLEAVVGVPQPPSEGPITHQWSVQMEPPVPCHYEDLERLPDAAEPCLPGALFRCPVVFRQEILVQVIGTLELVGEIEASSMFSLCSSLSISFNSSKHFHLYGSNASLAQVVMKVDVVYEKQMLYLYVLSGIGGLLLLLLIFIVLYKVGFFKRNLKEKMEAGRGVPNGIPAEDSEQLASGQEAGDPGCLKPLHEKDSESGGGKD
T1 sequence (P05107 23-769, chain 2 of 2): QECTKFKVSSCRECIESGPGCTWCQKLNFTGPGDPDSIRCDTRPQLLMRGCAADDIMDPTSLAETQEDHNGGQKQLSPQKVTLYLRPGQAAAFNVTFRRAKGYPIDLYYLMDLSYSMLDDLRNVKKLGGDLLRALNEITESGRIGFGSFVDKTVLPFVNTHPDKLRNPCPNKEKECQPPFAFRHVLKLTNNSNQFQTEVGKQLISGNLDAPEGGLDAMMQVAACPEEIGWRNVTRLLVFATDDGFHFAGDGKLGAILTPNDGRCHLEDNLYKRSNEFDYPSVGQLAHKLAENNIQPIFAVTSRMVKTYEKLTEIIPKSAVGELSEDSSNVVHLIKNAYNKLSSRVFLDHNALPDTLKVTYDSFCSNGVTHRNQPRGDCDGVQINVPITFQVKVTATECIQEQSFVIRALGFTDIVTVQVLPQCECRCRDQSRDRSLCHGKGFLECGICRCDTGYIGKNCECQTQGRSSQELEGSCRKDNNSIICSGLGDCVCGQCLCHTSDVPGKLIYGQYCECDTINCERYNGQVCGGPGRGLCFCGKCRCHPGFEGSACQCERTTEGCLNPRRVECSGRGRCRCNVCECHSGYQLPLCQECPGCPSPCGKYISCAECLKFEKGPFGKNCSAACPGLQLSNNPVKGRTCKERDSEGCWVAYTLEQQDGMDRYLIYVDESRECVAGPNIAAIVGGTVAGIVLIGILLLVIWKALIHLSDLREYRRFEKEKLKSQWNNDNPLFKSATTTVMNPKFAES

[4] = molecular target: β4 integrin (NIH3T3-derived cells) (UniProt A2A863 29-1818, limits assumed); assay: two-column affinity chromatography (ICAM-2 solid support, then streptavidin-agarose) and immunoblot
Chain of β4 integrin (NIH3T3-derived cells) (A2A863 29-1818 limits assumed): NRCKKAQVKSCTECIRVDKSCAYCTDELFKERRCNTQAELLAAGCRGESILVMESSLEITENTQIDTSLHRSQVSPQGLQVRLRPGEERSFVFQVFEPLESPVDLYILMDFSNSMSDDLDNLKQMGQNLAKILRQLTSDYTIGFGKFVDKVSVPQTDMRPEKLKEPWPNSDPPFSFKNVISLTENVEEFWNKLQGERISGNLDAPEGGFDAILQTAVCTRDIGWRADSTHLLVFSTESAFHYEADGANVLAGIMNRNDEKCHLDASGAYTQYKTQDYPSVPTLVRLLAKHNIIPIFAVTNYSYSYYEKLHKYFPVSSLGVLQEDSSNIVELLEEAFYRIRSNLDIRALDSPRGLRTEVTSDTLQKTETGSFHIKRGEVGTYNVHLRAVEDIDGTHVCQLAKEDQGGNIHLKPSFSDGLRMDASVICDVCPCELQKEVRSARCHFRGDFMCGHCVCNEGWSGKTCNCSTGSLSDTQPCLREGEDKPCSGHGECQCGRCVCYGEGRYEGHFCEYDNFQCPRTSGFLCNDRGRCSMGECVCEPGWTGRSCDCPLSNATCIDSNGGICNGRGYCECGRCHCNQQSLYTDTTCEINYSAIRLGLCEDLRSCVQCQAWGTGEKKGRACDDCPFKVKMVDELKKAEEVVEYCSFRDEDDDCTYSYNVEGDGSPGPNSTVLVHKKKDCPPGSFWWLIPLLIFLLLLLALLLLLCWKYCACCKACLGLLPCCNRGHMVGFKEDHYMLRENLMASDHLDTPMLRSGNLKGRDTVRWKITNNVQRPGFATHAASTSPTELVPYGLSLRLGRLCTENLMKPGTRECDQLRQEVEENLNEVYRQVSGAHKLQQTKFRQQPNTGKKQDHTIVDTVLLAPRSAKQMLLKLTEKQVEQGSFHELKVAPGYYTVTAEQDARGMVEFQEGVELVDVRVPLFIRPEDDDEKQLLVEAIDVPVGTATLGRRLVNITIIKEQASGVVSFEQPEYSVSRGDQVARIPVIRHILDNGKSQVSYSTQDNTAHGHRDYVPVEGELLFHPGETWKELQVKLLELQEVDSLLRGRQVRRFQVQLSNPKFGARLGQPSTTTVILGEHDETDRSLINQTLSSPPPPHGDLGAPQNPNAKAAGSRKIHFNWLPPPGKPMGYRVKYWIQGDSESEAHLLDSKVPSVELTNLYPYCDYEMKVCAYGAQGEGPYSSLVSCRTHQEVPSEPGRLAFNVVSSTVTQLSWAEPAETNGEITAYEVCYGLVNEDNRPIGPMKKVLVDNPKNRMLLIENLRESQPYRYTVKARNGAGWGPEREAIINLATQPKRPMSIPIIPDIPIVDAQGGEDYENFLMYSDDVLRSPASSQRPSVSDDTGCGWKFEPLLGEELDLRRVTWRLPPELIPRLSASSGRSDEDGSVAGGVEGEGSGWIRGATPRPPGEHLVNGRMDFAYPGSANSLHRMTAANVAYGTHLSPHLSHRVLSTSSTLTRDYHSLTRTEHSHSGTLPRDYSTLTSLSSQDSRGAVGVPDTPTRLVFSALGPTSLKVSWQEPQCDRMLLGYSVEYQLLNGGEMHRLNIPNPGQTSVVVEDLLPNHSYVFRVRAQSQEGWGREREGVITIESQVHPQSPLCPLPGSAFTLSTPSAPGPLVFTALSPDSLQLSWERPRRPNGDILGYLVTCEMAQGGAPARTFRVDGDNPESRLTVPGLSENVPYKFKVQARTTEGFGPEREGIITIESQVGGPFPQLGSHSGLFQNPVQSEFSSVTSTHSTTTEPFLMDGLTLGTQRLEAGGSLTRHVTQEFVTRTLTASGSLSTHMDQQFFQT

[5] = molecular target: T1, Leukocyte Function Antigen-1 (LFA-1) on …; assay: flow cytometry, ICAM-2-FITC titration on Jurkat cells, single cell analysis
Experimental: Molecular weight was calculated using relative distance migration from a molecular weight standard. Concentration was determined using serial dilutions of BSA as a standard. […] Mean fluorescence intensity was plotted per time of a gated homogenous cell population. Flow rate was maintained at 200-300 cells/second, with fluorescence intensity values acquired at 10 millisecond intervals for 1200 seconds. […] Cells were washed 1×, and analyzed for mean fluorescent intensity (MFI) of 10^4 cells. […] Values were fit to the equation Y=m1*M0/(m2+M0) (see materials and methods).

[6] = molecular target: ezrin in NIH3T3 cells (UniProt P26040 1-586); assay: co-immunoprecipitation (IP ICAM-2, immunoblot ezrin) from transduced NIH3T3 cells
Chain of ezrin in NIH3T3 cells (P26040 whole entry): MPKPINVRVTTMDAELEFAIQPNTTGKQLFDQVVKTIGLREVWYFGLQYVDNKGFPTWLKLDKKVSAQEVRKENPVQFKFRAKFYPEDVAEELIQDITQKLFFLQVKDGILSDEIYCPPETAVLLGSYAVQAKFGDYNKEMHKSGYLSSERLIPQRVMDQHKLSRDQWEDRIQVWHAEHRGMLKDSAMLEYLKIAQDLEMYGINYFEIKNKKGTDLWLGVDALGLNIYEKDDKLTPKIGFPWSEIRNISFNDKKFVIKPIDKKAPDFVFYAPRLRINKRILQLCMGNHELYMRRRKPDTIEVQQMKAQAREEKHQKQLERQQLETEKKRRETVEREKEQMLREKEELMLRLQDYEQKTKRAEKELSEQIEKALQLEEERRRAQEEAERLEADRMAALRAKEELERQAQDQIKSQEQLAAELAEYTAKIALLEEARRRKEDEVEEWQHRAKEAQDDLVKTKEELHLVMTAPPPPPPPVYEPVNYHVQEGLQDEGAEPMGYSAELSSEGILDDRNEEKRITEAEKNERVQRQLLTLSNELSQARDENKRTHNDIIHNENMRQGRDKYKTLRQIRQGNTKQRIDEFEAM
Text: Control lysates were not subjected to immunoprecipitation and reflect positive controls for detected interacting protein. […] Phosphotransfer of ATP to peptide substrate was detected by scintillation counting and presented as counts per minute CPM.

phospho-AKT Ser473 monoclonal antibody 4E2
percent of gated cells (number printed below the gate) [1]: 43.9

phospho-p38 MAP kinase (Thr180/Tyr182) monoclonal antibody 28B10
percent of cells in the drawn gate (number printed beside the gate) [2]: 13.3

B1: soluble human ICAM-2 protein, biochemically purified from retrovirally transduced NIH3T3 cells (ligand, UniProt P13598 25-275, looked up)
chain: KVFEVHVRPKKLAVEPKGSLEVNCSTTCNQPEVGGLETSLDKILLDEQAQWKHYLVSNISHDTVLQCHFTCSGKQESMNSNVSVYQPPRQVILTLQPTLVAVGKSFTIECRVPTVEPLDSLTLFLFRGNETLHYETFGKAAPAPQEATATFNSTADREDGHRNFSCLAVLDLMSRGGNIFHKHSAPKMLEIYEPVSDSQMVIIVTVVSVLLSLFVTSVLLCFIFGQHLRQQRMGTYGVRAAWRRLPQAFRP
modifications: FITC (NHS-fluorescein) conjugate where used as ICAM-2-FITC, sites not stated
notes: mature; also called sICAM-2; soluble ICAM-2
stimulus needed for similar expression of CD69 and CD25 on naive CD4+ T cells, 6 hr [3]: 10000 fold | binding result [4]: no binding | Kd [5]: 217 nM

B2: human ICAM-2, full length, in cells (receptor, UniProt P13598 25-275, looked up)
chain: KVFEVHVRPKKLAVEPKGSLEVNCSTTCNQPEVGGLETSLDKILLDEQAQWKHYLVSNISHDTVLQCHFTCSGKQESMNSNVSVYQPPRQVILTLQPTLVAVGKSFTIECRVPTVEPLDSLTLFLFRGNETLHYETFGKAAPAPQEATATFNSTADREDGHRNFSCLAVLDLMSRGGNIFHKHSAPKMLEIYEPVSDSQMVIIVTVVSVLLSLFVTSVLLCFIFGQHLRQQRMGTYGVRAAWRRLPQAFRP
notes: whole, on cells; Used in co-immunoprecipitations from cell lysates, FACS staining and cell mixing assays; also called ICAM-2 cells; CD102
binding result [6]: binds
